Test results: patent US8728787B2, “Fungal laccases and uses thereof” (Academia Sinica, priority 2010, dated 2014)

Experiments:
[1] = Thermal stability: residual enzymatic activity after pre-incubation (t1/2); assay type: physicochemical; details: for t1/2: 50 mM citric acid buffer pH 3.0
Method: (§1) The effect of temperature on laccase activity was studied using the standard enzymatic activity assay described above under various reaction temperatures (i.e., 20-80° C.). For thermal stability study, the enzyme was pre-incubated in a 50 mM citric acid buffer (pH 3.0) at 50-80° C. for 0-180 min and the residual enzymatic activity was then determined.
To test thermal stability, the enzyme was kept at various temperatures (50-80° C.) for 10-40 min and the remaining enzymatic activity was determined using the standard activity assay.
(§2) To determine the effect of temperature on the enzyme activity, a standard enzymatic activity assay was performed under various temperatures (i.e., 30-90° C.). For thermal stability study, laccase was pre-incubated in a 50 mM citric acid buffer (pH 3.0) at 30-80° C. for 10-40 min and the residual enzymatic activity was then determined by the standard assay. See Example 1 above. Values of t1/2 were determined accordingly.

[2] = Laccase stability on extended incubation with ethanol or methanol; assay type: physicochemical; details: room temperature, pH 6.0
Method: To examine the effect of ethanol on Cerrena sp. WR1 laccase stability, the enzyme was incubated in a 50 mM sodium phosphate buffer (pH 6.0) containing 1%, 10%, or 25% ethanol at room temperature for up to 52 days and the residual enzyme activity was measured at different time points during incubation. A T. versicolor laccase (LccTv) was used as a reference enzyme. […] Differently, Lcc3 retained around 90% activity after being incubated with 25% ethanol for 10 days and retained approximately 50% enzymatic activity after a 40-day incubation period. This enzyme also retained about 50% enzymatic activity after a 45-day incubation period with 10% ethanol and a 40-day incubation without ethanol.
The laccase stability after incubation with methanol or ethanol for an extended period was further investigated. […] The enzyme activity of the Lentinus sp. laccase maintained as 95% in 25% ethanol while that of the reference laccase reduced to 41%.

[3] = 2,6-DMP oxidation (laccase kinetics, optimum temperature and pH); assay type: biochemical; details: 2,6-DMP as substrate
Method: as §1
The effect of pH on the laccase activity was investigated at a pH range of 2.5-6.0. Four buffer systems were used in this study: 50 mM glycine-HCl buffer (pH 2.5), 50 mM citric acid buffer (pH 3.0-5.5), 50 mM sodium phosphate buffer (pH 6.0-8.0), and 50 mM glycine-NaOH buffer (pH 9.0-10). To determine the protein stability of laccase at a wide range of pH conditions, the enzyme (0.1 mg/mL in each reaction) was pre-incubated at pH 3.0-10 at 25° C. for 0-5 days and then the residual enzyme activity was determined.
Kinetic parameters Km and Vmax were determined as follows. […] The oxidation reactions of guaiacol and 2,6-DMP were monitored by determining OD436 values (ε=6,400 M^−1cm^−1) and OD468 values (ε=49,600 M^−1 cm^−1), respectively. The kinetic parameters were determined by nonlinear regression analysis (ENZFITTER software program, Elsevier-Biosoft, Cambridge, UK) using the Michaelis-Menten model.
as §2
The effect of pH on laccase activity was investigated at pH 2.0-6.0, using a glycine-HCl buffer (pH 2.0-2.5) or a citric acid buffer (pH 2.5-6.0). To determine protein stability in different pH conditions, the enzyme was pre-incubated at pH 2.5-4.5 at 25° C. for 0-2 h and the residual enzyme activity was determined by the standard enzymatic assay.
Kinetic parameters were determined following conventional methods. See also Example 1 above.

RBBR dye decoloration = details: 0.02% RBBR, 8 U enzyme, 20° C., 1 h, pH 3.0
Method: Dye decoloration reaction was performed by mixing a partially purified laccase broth (containing 8 U enzyme) with a 1 ml reaction buffer (50 mM citric acid solution; pH 3.0) containing 0.02% RBBR (Sigma). The mixture was incubated at 20° C. for 1 h. Dye decoloration was determined by monitoring the change in absorbance at 595 nm and the dye decoloration efficiency (%) was defined as the relative amount of dye reduced after the treatment.
The lignin degradation reaction and the dye decoloration reaction were carried out following the methods described in Example 1 above. […] See FIG. 9, pane A. The lignin degradation efficiencies were 22%-25% at 40-50° C. for 40 min and 32% at 40° C. for 60 min.

[4] = Laccase activity in culture media of recombinant P. pastoris; assay type: biochemical; details: expressed in P. pastoris X-33; 13-26 day (Lcc1-3) or 18-day (LccA) cultivation
From the text: The EasySelect™ Pichia Expression System (Invitrogen) was used in this study for expression of Lcc1, Lcc2, and Lcc3 laccases. cDNA fragments coding for these three laccases were cloned into Pichia expression vector pPICZA or pPICZaB via EcoRI and NotI restriction sites. More specifically, the lcc1 gene coding for Lcc1 precursor (including a signal peptide sequence) was cloned into pPICA to generate expression plasmid pPICZA-lcc1 and the lcc2 and lcc3 genes coding for mature Lcc2 and Lcc3 were cloned into pPICZaB to obtain expression plasmids pPICZaB-lcc2 and pPICZaB-lcc3, respectively. The three expression plasmids were introduced into P. pastoris X-33 cells following the method described in Invitrogen's protocol. Positive transformants were cultured in BMMY (1% yeast extract, 2% peptone, 100 mM potassium phosphate, pH 6.0, 1.34% yeast nitrogen base, 0.00004% biotin, and 0.5% methanol) at 25° C., 200 rpm for 12-26 days. Methanol was added to the culture media daily to reach a final concentration of 0.5%. During the cultivation, 1 ml of the supernatant was collected at various time points. The laccase activity and cell density in the supernatant were determined following the method described above or routine procedures.
pPICZ-lccA was introduced into Pichia pastoris strain X-33 host cells (Invitrogen) and positive transformants were selected for LccA expression. Briefly, a positive transformant was cultured in BMMY medium containing 1% yeast extract, 2% peptone, 1.34% yeast nitrogen base, 0.00004% biotin, and 0.5% methanol at 25° C. and 200 rpm for 20 days. Methanol was daily added to reach a final concentration of 0.5%. Within the 20-day cultivation, 1 ml of the supernatant was collected; laccase activity and cell growth were determined.

B1: Lcc3: laccase purified from Cerrena sp. WR1, GenBank accession no. GQ899203; SEQ ID NO:3 mature, 9 precursor (protein)
chain: AIGPVADLHITDANVSPDGFTRPAVLAGGTFPGPLITGKQGDNFQINVIDELTDATMLKSTSIHWHGIFQKGTNWADGPSFVNQCPITTGNSFLYDFSVPDQTGTYWYHSHLSTQYCDGLRGALVIYDDNDPHKDLYDVDDETTVITLADWYHTQARLITGVPVSDATLINGLGRYLNGPTDAPLAVITVDQGKRYRFRLVSISCDPNFVFSIDNHSMTVIEVDAVNSQPLVVDSIQIFAAQRYSFILNANQSVGNYWIRANPNLGNTGFTNGINSAILRYNGAPVAEPNTTQTASTNPLNEVNLHPLVPTPVPGTPQPGGVDVVQNLVLGFSGGKFTINGVAFSPPTVPVLLQILSGTTTAQDLLPTGSIIELPLGKTVELTLAAGVLGGPHPFHLHGHTFHVVRSAGQTTPNYVDPILRDTVNTGAAGDNVTIRFTTDNPGPWFLHCHIDWHLEAGFAVVFAEGLNQTNAANPTPDAWNNLCDLYNALPAGDQ
modifications: Cerrena sp
In the case of B1, the “t1/2 at room temperature” value ([1]; 25° C., 50 mM sodium phosphate buffer (pH 6.0)) is reported as 40 days, the t1/2 ([1]; at 50° C.) is reported as 120 min and the t1/2 ([1]; at 60° C.) is reported as 40 min. The t1/2 ([1]; at 70° C.) was 7.5 min, the t1/2 ([1]; at 70° C., listed as Cerrena sp. WR1) was 8 min and the activity retained ([2]; 1% ethanol, 52-day incubation) was “about 61%”. For the same molecule, the activity retained ([2]; 10% ethanol, 45-day incubation) was “approximately 50%”, the activity retained ([2]; 25% ethanol, 40-day incubation) was “approximately 50%” and the activity retained ([2]; 25% ethanol, 10 days) was “around 90%”. For the same molecule, the activity retained ([2]; without ethanol, 40-day incubation) was “approximately 50%”, the optimal temperature [3] was 70 °C and the “pH of maximal activity” value [3] was 3.5. For the same molecule, the Optimum temperature ([3]; at pH 3.5) was 70 (at pH 3.5) ° C, the Specific activity ([3]; optimum temperature and pH) was 118.3 U/mg and the “decoloration efficiency against RBBR” value (RBBR dye decoloration) was 70.1%. The “laccase activity in culture media” value [4] was roughly 3700 U/L.
